Experimental findings from US20240034757A1 are described below.

In this assay the target is CXCL9_HUMAN (human) (UniProt Q07325). As to the kind of experiment: yeast surface display FACS re-test.
CXCL9_HUMAN (human), sequence (Q07325 23-125 limits assumed): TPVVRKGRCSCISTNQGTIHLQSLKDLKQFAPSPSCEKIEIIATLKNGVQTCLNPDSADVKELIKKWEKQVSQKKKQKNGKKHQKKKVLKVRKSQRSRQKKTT

B1: P1126_AMBCA (protein)
chain: KPQILQRTDKSTDSEWDPQTCPETCIPSKNITCSDGCVCVKLGEEEEGTCFNMTGVDWLGSPSDD
The molecule B1 displayed a % cells over threshold fluorescence of 56%.
